PMC13065467, “Assembly and phosphoregulatory mechanisms of the budding yeast outer kinetochore KMN complex” (The Journal of Cell Biology, 2026)
Ends that are not written are not given here.

Experiments:
[1] = biological target: Knl1c:Mis12c^Mtw1c complex K^HB-RWDM^2E (full-length Dsn1 with S240E and S250E phosphomimetic mutations), P53148;Q04431;P40568;P39731;P47149;Q12143; experiment: ITC; details: Syringe: CENP-U^Ame1_1-33-Mut (0.32 mM); Cell: K^HB-RWDM^2E (0.016 mM); parent: 1.35 ± 0.08
[2] = biological target: KlMis12c^Mtw1c with phosphomimetic mutations of Dsn1^AI; details: fluorescence polarization; K. lactis complex with phosphomimetic mutations (Asp mutants of S213/S223); ref Dimitrova et al., 2016; cited from earlier work
Source text: We further investigated the effect of Dsn1^AI on the interaction between K^HB-RWDM (which has wild-type unphosphorylated Dsn1^AI) and a peptide modeled on the N-terminal 38 residues of CENP-C^Mif2 (CENP-C^Mif2_1–38). […] Also similar to Dimitrova et al. (2016), using ITC we found no binding of CENP-UAme1_1-33 to the unphosphorylated KM. […] We cannot accoun ... || (+ 2 further places)

[3] = tested on: KlMis12c^Mtw1c containing an intact Dsn1^AI; details: lower concentrations (50 nM) for CENP-U^Ame1, unphosphorylated complex, ref Dimitrova et al., 2016; cited from earlier work
[4] = tested on: T1, K^HB-RWDM^Dsn1Δ257 (Knl1c:Mis12c^Mtw1c complex, Knl1^Spc105 residues 1–444 and Dsn1 residues 1–257 deleted); experiment: ITC, Dsn1 peptide titrated into K^HB-RWDM^Dsn1Δ257; type: binding, S. cerevisiae
T1 construct: made in house; host or cells: High-5 insect cells (baculovirus)
T1 sequence (Q04431 whole entry, stated change not applied, one chain of several, further chain, the tested form may be a part): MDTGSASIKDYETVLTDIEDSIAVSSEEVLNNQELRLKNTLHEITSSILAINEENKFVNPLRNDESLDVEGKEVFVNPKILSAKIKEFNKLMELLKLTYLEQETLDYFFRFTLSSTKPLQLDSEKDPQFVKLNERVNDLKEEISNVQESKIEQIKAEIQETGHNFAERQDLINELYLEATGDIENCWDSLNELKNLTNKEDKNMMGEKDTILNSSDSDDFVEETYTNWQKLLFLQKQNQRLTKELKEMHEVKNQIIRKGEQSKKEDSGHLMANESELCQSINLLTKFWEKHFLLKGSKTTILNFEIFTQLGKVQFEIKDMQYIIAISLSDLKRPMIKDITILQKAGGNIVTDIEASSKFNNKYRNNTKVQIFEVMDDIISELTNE
T1 sequence (P53148 445-917, stated change not applied, one chain of several, further chain): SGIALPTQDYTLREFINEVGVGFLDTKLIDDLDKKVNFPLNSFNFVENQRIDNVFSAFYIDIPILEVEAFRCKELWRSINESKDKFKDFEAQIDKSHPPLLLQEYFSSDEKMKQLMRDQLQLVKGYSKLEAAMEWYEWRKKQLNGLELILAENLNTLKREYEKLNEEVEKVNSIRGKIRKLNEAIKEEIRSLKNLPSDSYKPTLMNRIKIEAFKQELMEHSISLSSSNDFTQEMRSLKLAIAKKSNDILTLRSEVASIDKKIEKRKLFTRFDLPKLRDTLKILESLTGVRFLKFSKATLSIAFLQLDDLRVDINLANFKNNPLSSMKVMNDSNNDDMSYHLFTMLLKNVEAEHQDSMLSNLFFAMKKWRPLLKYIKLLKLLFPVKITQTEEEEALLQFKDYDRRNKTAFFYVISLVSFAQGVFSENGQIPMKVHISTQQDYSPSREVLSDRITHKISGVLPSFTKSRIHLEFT
Protocol: Dsn1^228–254 and Dsn1^228–254,S240E,S250E peptides were synthesized by Alta BioScience with N-terminal acetylation and C-terminal GSAW extension and amidation. The final sequence of Dsn1^228–254 was […], and Dsn1^228–254,S240E,S250E was […]. All protein complexes and peptides used in a given experiment were dialyzed for a minimum of 16 h and/or buffer-exchanged by size-exclusion chromatography into the same batch of ITC buffer (25 mM HEPES, pH 7.5, 100 mM NaCl, 1 mM TCEP). All experiments were performed using an Auto-iTC200 instrument (Malvern Instruments) at 25°C. In each experiment, 360 μl of protein complex was pipetted into the calorimeter cell. The protein complex loaded into the calorimeter cell contained Knl1c:Mis12c^Mtw1c with Knl1^Spc105_HB-RWD and Dsn1^Δ1–257 and either wild-type Mis12^Mtw1 (K^HB-RWDM ^Dsn1Δ257) or Mis12^Mtw1_E69A,E73A,E77A mutant (K^HB-RWDM ^Dsn1Δ257_Mis12-3A). Wild-type constructs of all other Knl1c and Mis12c^Mtw1c subunits were included. Titration of either the Dsn1^228–254 or Dsn1^228-254,S240E,S250E peptide into the cell was then performed by an initial injection of 0.5 μl, followed by 19 further injections of 2.0 μl each. […] Titrations were performed in duplicate or triplicate, and reported KD and n values were calculated as an average from all replicate results.

[5] = biological target: T2, Knl1c:Mis12c^Mtw1c complex K^HB-RWDM^2E (full-length Dsn1 with S240E and S250E phosphomimetic mutations) (S. cerevisiae, UniProt P53148 445-917; Q04431 1-385; P40568 1-576; P39731 1-289; P47149 1-201; Q12143 …, S240E | S250E); experiment: ITC; peptide titrated into the complex in the cell; 20°C; 25 mM HEPES pH 7.5, 100 mM NaCl, 0.5 mM TCEP; details: both partners purified
T2 construct: Knl1^Spc105_HB-RWD: Knl1^Spc105, S. cerevisiae S288c, residues 445-917; ZWINT^Kre28, S. cerevisiae S288c; no truncation stated; Dsn1^S240E,S250E: full-length Dsn1, S. cerevisiae S288c, with phosphomimetic mutations; Mis12^Mtw1, S. cerevisiae S288c; Nnf1, S. cerevisiae S288c; Nsl1, S. cerevisiae S288c; also called KM^2E; K^HB-RWDM^S240E,S250E; source: High-5 insect cells (baculovirus), purified …
T2 sequence (P53148 445-917, chain 1 of 2): as the sequence (P53148 445-917, stated change not applied, one chain of several, further chain) above
T2 sequence (Q04431 whole entry, chain 2 of 2, the tested form may be a part): as the sequence (Q04431 whole entry, stated change not applied, one chain of several, further chain, the tested form may be a part) above

[6] = biological target: T3, S. cerevisiae Ndc80 complex (Ndc80, Nuf2, Spc24, Spc25) (S. cerevisiae, UniProt P40460 1-691; P33895 1-451; Q04477 1-213; P40014 1-221); experiment: SEC; 4 μM Mis12c^Mtw1c (wild type or mutant) mixed with 4 μM Ndc80c in KMN buffer, 30 min on ice; Superose 6 3.2/300; fractions on SDS-PAGE; details: both partners purified
T3 construct: Ndc80, S. cerevisiae S288c; Nuf2, S. cerevisiae S288c; Spc24, S. cerevisiae S288c; Spc25, S. cerevisiae S288c; The Twin-Strep tag on Nuf2 is TEV cleavable; no cleavage is described; source: High-5 insect cells (two baculoviruses), purified (Strep-Tactin, Resource Q, SEC); copies: + + +
T3 sequence (P40460 whole entry, chain 1 of 4): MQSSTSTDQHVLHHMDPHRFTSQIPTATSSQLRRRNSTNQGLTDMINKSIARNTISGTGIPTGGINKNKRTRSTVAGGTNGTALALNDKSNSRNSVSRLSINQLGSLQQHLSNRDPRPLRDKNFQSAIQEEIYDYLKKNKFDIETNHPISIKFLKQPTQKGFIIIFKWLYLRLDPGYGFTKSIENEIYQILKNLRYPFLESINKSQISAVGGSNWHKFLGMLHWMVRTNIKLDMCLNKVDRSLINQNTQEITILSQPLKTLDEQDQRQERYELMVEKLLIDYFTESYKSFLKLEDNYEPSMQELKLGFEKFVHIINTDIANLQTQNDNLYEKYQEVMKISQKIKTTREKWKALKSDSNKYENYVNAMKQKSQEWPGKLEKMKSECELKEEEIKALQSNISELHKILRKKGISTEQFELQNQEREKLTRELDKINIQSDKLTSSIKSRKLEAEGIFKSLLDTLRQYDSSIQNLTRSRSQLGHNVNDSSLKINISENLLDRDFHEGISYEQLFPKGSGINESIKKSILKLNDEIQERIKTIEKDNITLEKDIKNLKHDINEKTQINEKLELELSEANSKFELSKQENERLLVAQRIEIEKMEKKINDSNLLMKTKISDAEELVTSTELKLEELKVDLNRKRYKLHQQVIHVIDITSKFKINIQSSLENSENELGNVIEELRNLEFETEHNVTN
T3 sequence (P33895 whole entry, chain 2 of 4): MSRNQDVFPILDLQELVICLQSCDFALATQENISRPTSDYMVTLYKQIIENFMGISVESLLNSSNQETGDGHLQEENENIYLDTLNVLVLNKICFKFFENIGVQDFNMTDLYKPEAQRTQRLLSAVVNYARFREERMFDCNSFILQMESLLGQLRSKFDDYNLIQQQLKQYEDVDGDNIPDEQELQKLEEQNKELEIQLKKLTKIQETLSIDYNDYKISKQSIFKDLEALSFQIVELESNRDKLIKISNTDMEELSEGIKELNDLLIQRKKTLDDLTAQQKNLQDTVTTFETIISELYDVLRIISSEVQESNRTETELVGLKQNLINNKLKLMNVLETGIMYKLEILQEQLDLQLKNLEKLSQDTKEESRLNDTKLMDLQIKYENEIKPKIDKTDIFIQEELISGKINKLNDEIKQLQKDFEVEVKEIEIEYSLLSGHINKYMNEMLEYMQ
T3 sequence (Q04477 whole entry, chain 3 of 4): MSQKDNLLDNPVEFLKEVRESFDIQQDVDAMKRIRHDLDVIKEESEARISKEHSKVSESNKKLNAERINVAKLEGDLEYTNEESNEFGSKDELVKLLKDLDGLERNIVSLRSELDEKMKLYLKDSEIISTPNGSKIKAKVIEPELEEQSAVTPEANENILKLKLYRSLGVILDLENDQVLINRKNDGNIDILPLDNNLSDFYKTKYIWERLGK
T3 sequence (P40014 whole entry, chain 4 of 4): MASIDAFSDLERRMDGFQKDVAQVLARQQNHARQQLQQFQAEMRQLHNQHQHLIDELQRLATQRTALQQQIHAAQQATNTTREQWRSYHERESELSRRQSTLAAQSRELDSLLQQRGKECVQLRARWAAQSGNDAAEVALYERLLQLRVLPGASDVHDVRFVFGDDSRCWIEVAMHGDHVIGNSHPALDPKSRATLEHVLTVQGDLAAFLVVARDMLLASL

CENP-U^Ame1_1–33 peptide (residues 1–33 of CENP-U^Ame1) D25A; V27A; I28A; F29A; T31A
other: N (ITC stoichiometry) [1]: 1.34

CENP-C^Mif2_1-41: CENP-C^Mif2 peptide (residues 1-41) reported by Dimitrova et al., 2016 (MDYMKLGLKSRKTGIDVKQDIPKDEYSMENIDDFFKDDETS; UniProt P35201 1-41, looked up, fragment)
Kd [2]: 1750 nM
binding (fluorescence polarization) [3]: no binding

K. lactis CENP-U^Ame1_1-25: residues 1–25 of K. lactis CENP-U^Ame1, reported by Dimitrova et al., 2016 (MDALKQRHLKLLYRQRGSASRTIDY; UniProt Q6CUE5 1-25, looked up, fragment)
Kd [2]: 1480 nM
binding (fluorescence polarization) [3]: did not interact

Ac-PHYIQRTRERKKEIGSQRGRRLEMLASGSAW-NH2 [Dsn1^228-254,S240E,S250E]
decrease of affinity versus wild-type peptide ([4]; ratio of ITC KD values, S240E,S250E peptide versus wild-type Dsn1^228–254): fivefold
Kd ([4]; read-out: KD (ITC) of phosphomimetic Dsn1 peptide, ITC, 25°C, 25 mM HEPES pH 7.5, 100 mM NaCl, 1 mM TCEP, syringe 0.35 mM, cell 0.025 mM, average from two experiments (technical repeats)): 6 µM

B1: CENP-U^Ame1_1–33 peptide (residues 1–33 of CENP-U^Ame1) (peptide)
peptide: MDRDTKLAFRLRGSHSRRTDDIDDDVIVFKTPNW-NH2
notes: CENP-U^Ame1, S. cerevisiae, residues 1-33; added C-terminal tryptophan after residue 33 (so in the source); source: synthetic peptide (Alta BioScience)
Kd [5]: 240 nM

B2: CENP-U^Ame1_1-33-Mut peptide (CENP-U^Ame1_1-33 with Ala substitutions) (peptide)
peptide: MDRDTKLAFRLRGSHSRRTDDIDDAAAVAKAPNW-NH2
notes: CENP-U^Ame1, S. cerevisiae, residues 1-33 with five Ala substitutions; added C-terminal tryptophan after residue 33 (so in the source); also called CENP-U^Ame1_1-33 mutant; source: synthetic peptide (Alta BioScience)
Kd [5]: 1310 nM

B3: Isolated Mis12c^Mtw1c, full-length and wild-type proteins (Dsn1, Nsl1, Mis12^Mtw1, Nnf1) (complex, S. cerevisiae)
chain 1: MSLEPTQTVSGTPPMLHQRTHKQVYPLRMETIPILESDSKATLQSNEPTQKDEEETEYFENKQSVSNLSPDLKFKRHKNKHIQGFPTLGERLDNLQDIKKAKRVENFNSSAPIADDNHSGDATANATANATANATANVNASAMPAPYMPYYYYYHPMNAPTPAMIPYPGSPMHSIMPNSSLQPFYSQPTAAGGPDMTTPQNISSSQQLLPAPQLFPYGSFHQQQLQQPHYIQRTRERKKSIGSQRGRRLSMLASQANGGSTIISPHKDIPEEDFYTVVGNASFGKNLQIRQLFNWCLMRSLHKLELKAKNQEEEGELEHLTKKSKLESTKAETDYVDPKRLAMVIIKEFVDDLKKDHIAIDWEDEEKYEDEDEEKILDNTENYDDTELRQLFQENDDDDDDDDEVDYSEIQRSRRKFSERRKALPKEPKKLLPNSKNVENTKNLSILTSKVNAIKNEVKEWAVTLDTSRPDLEWQELTSFSSQPLEPLSDTEEPDLAIADVETKLETKVDELRYQSHILNSHSLALNEITNSKVNKLNIETMRKISSETDDDHSQVINPQQLLKGLSLSFSKKLDL
chain 2: MSQGQSKKLDVTVEQLRSIYHQFHDILEEKTDLHLPKKEYDDDAVRREVQIQLQEFLLSAMTMASKSLEVVNADTVGKTVKQLIMESQEKYMEPFDLDLNEQVRKMYQEWEDETVKVAQLRQTGPAKINEVYNNSKDEYLAQLDGRIGVLQARMMQQQSADHDDSTDDADDHINWEHIKQDYVASLNELYQTQQDLPKVRYNVEKVKRLMDFLEED
chain 3: MSAPTMRSTSILTEHLGYPPISLVDDIINAVNEIMYKCTAAMEKYLLSKSKIGEEDYGEEIKSGVAKLESLLENSVDKNFDKLELYVLRNVLRIPEEYLDANVFRLENQKDLVIVDENELKKSEEKLREKVNDVELAFKKNEMLLKRVTKVKRLLFTIRGFKQKLNELLKCKDDVQLQKILESLKPIDDTMTLLTDSLRKLYVDSESTSSTEEVEALLQRLKTNGKQNNKDFRTRYIDIRTNNVLRKLGLLGDKEDEKQSAKPDARTQAGDIVSIDIEEPQLDLLDDVL
chain 4: MVNSHGIRYIRLKQVFNRALDQSISKLQSWDKVSSCFPQYVNSKQGAINVANCQRQLTEFWTELCQREFKEIMEERNVEQKLNELDELILEAKERYTDRDQDEVNKGPAIDELSSKELVECHLYSQRMHAIHEIDERLAKVNEMNDQLAQELKDLETQVEVEKNEIGKMYDEYLGSHTDQPANVLLVQSLNDMVLELKENY
notes: Dsn1, S. cerevisiae S288c; Nsl1, S. cerevisiae S288c; Mis12^Mtw1, S. cerevisiae S288c; Nnf1, S. cerevisiae S288c; source: High-5 insect cells (two baculoviruses), purified (Strep-Tactin, SEC); copies: + + +
binding result [6]: binds

B4: Mis12c^Mtw1c_Mis12ΔC (isolated Mis12c^Mtw1c with Mis12^Mtw1 residues 272–289 deleted) (complex, S. cerevisiae)
chain 1: B3 chain 1
chain 2: B3 chain 2
chain 3: MSAPTMRSTSILTEHLGYPPISLVDDIINAVNEIMYKCTAAMEKYLLSKSKIGEEDYGEEIKSGVAKLESLLENSVDKNFDKLELYVLRNVLRIPEEYLDANVFRLENQKDLVIVDENELKKSEEKLREKVNDVELAFKKNEMLLKRVTKVKRLLFTIRGFKQKLNELLKCKDDVQLQKILESLKPIDDTMTLLTDSLRKLYVDSESTSSTEEVEALLQRLKTNGKQNNKDFRTRYIDIRTNNVLRKLGLLGDKEDEKQSAKPDARTQAGD
chain 4: B3 chain 4
notes: Dsn1, S. cerevisiae S288c; Nsl1, S. cerevisiae S288c; Nnf1, S. cerevisiae S288c; also called Mis12^Mtw1_Δ272-C; source: High-5 insect cells (two baculoviruses), purified (Strep-Tactin, SEC); copies: + + +
binding result [6]: binds

B5: Mis12c^Mtw1c_Mis12ΔC-Nnf1ΔC (isolated Mis12c^Mtw1c with Mis12^Mtw1 residues 272–289 and Nnf1 residues 180–201 deleted) (complex, S. cerevisiae)
chain 1: B3 chain 1
chain 2: B3 chain 2
chain 3: B4 chain 3
chain 4: MVNSHGIRYIRLKQVFNRALDQSISKLQSWDKVSSCFPQYVNSKQGAINVANCQRQLTEFWTELCQREFKEIMEERNVEQKLNELDELILEAKERYTDRDQDEVNKGPAIDELSSKELVECHLYSQRMHAIHEIDERLAKVNEMNDQLAQELKDLETQVEVEKNEIGKMYDEYLGSHTD
notes: Dsn1, S. cerevisiae S288c; Nsl1, S. cerevisiae S288c; Nnf1^Δ180-C: Nnf1, S. cerevisiae S288c, residues 180-201 deleted; source: High-5 insect cells (two baculoviruses), purified (Strep-Tactin, SEC); copies: + + +
binding result [6]: binds

B6: Mis12c^Mtw1c_Nnf1ΔC (isolated Mis12c^Mtw1c with Nnf1 residues 180–201 deleted) (complex, S. cerevisiae)
chain 1: B3 chain 1
chain 2: B3 chain 2
chain 3: B3 chain 3
chain 4: B5 chain 4
notes: Dsn1, S. cerevisiae S288c; Nsl1, S. cerevisiae S288c; Mis12^Mtw1, S. cerevisiae S288c; Nnf1^Δ180-C: Nnf1, S. cerevisiae S288c, residues 180-201 deleted; also called Nnf1^Δ180-C; source: High-5 insect cells (two baculoviruses), purified (Strep-Tactin, SEC); copies: + + +
binding result [6]: binds

B7: CENP-C^Mif2_1–38 peptide (N-terminal 38 residues of CENP-C^Mif2) (peptide)
peptide: MDYMKLGLKSRKTGIDVKQDIPKDEYSMENIDDFFKDD-NH2
notes: CENP-C^Mif2, S. cerevisiae, residues 1-38; source: synthetic peptide (Alta BioScience)
Kd [5]: 980 nM
